Columns and labels:
VEGF165 [1] = target: T1, VEGF165 (human, UniProt P15692-4 27-191); assay: EMSA supershift; 10 uM VEGF165; ternary complex; EMSA: TBSE (0.05 mM EDTA, 10 mM Tris-HCl, 100 mM NaCl, pH 7; Vap7 folded with +100 mM KCl), 25 C, 30-60 min, 0.1 uM aptamer; 12% gel in 50 mM glycine pH 9.5 with or without 10 mM KCl. Microarray: TBSE, 25 C, 30 min, PBS washes; settings: protein: commercial; chain copies: 2; label: 5'-FAM on strand 2; two separate aptamers, not a duplex
VEGF165 [2] = target: T1, VEGF165; assay: sandwich aptamer microarray; detected with VEa5-Cy5; EMSA: TBSE (0.05 mM EDTA, 10 mM Tris-HCl, 100 mM NaCl, pH 7; Vap7 folded with +100 mM KCl), 25 C, 30-60 min, 0.1 uM aptamer; 12% gel in 50 mM glycine pH 9.5 with or without 10 mM KCl. Microarray: TBSE, 25 C, 30 min, PBS washes; settings: protein: commercial; chain copies: 2
VEGF165 [3] = target: T1, VEGF165; assay: EMSA; 100 mM KCl; EMSA: TBSE (0.05 mM EDTA, 10 mM Tris-HCl, 100 mM NaCl, pH 7; Vap7 folded with +100 mM KCl), 25 C, 30-60 min, 0.1 uM aptamer; 12% gel in 50 mM glycine pH 9.5 with or without 10 mM KCl. Microarray: TBSE, 25 C, 30 min, PBS washes; settings: protein: commercial; chain copies: 2; G4
VEGF165 [4] = target: T1, VEGF165; assay: EMSA; EMSA: TBSE (0.05 mM EDTA, 10 mM Tris-HCl, 100 mM NaCl, pH 7; Vap7 folded with +100 mM KCl), 25 C, 30-60 min, 0.1 uM aptamer; 12% gel in 50 mM glycine pH 9.5 with or without 10 mM KCl. Microarray: TBSE, 25 C, 30 min, PBS washes; settings: protein: commercial; chain copies: 2; three stem-loops (predicted)
VEGF165 [5] = target: T1, VEGF165; assay: EMSA; 5 uM VEGF165; EMSA: TBSE (0.05 mM EDTA, 10 mM Tris-HCl, 100 mM NaCl, pH 7; Vap7 folded with +100 mM KCl), 25 C, 30-60 min, 0.1 uM aptamer; 12% gel in 50 mM glycine pH 9.5 with or without 10 mM KCl. Microarray: TBSE, 25 C, 30 min, PBS washes; settings: protein: commercial; chain copies: 2; label: 5'-FAM; three stem-loops (predicted)
VEGF165 [6] = target: T1, VEGF165; assay: EMSA; 5 uM VEGF165; two shifted bands; EMSA: TBSE (0.05 mM EDTA, 10 mM Tris-HCl, 100 mM NaCl, pH 7; Vap7 folded with +100 mM KCl), 25 C, 30-60 min, 0.1 uM aptamer; 12% gel in 50 mM glycine pH 9.5 with or without 10 mM KCl. Microarray: TBSE, 25 C, 30 min, PBS washes; settings: protein: commercial; chain copies: 2; label: 5'-FAM; G4

T1 sequence (P15692 other isoform, or with tags, fused parts or gaps): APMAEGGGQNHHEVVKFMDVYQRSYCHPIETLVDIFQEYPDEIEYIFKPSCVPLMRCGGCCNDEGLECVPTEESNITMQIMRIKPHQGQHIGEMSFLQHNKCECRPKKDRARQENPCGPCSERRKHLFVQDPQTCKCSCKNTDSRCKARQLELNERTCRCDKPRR

B1: VEa5-NH2 + Vap7-FAM (mixed)
DNA 1: ATACCAGTCTATTCAATTGGGCCCGTCCGTATGGTGGGTGTGCTGGCCAGATAGTATGTGCAATCA
DNA 2: ATACCAGTCTATTCAATTGCACTCTGTGGGGGTGGACGGGCCGGGTAGA
modifications: 5'-amino on strand 1
- binding result (VEGF165 [1]): binds

Binder: TCACGCTTATTTAAGAAGCTGTTTGGTGGAGG (ssDNA, 5'-amino) [Random DNA-NH2]
- binding result (VEGF165 [2]): no binding

Binder: ATACCAGTCTATTCAATTGCACTCTGTGGGGGTGGACGGGCCGGGTAGA (structured_DNA) [Vap7]
- binding result (VEGF165 [3]): binds

B2: VEa5 (structured_DNA)
DNA: ATACCAGTCTATTCAATTGGGCCCGTCCGTATGGTGGGTGTGCTGGCCAGATAGTATGTGCAATCA
- binding result (VEGF165 [4]): binds

B3: VEa5-FAM (structured_DNA)
DNA: ATACCAGTCTATTCAATTGGGCCCGTCCGTATGGTGGGTGTGCTGGCCAGATAGTATGTGCAATCA
- binding result (VEGF165 [5]): binds

Binder: ATACCAGTCTATTCAATTGCACTCTGTGGGGGTGGACGGGCCGGGTAGA (structured_DNA) [Vap7-FAM]
- binding result (VEGF165 [6]): binds

B4: Vap7-NH2 + VEa5-FAM (mixed)
DNA 1: ATACCAGTCTATTCAATTGCACTCTGTGGGGGTGGACGGGCCGGGTAGA
DNA 2: ATACCAGTCTATTCAATTGGGCCCGTCCGTATGGTGGGTGTGCTGGCCAGATAGTATGTGCAATCA
modifications: 5'-amino on strand 1
- binding result (VEGF165 [1]): binds

From paper PMC3859071, “Development of a Multiplex Sandwich Aptamer Microarray for the Detection of VEGF165 and Thrombin”
